For 34 variants, abundance fitness results are on record in the Human Domainome abundance scans (Beltran et al. 2025).

First the molecules themselves.
B1: Segment polarity protein dishevelled homolog DVL-3, residues 2 to 81; numbered along this chain, Q92997 (parent)
chain: GETKIIYHLDGQETPYLVKLPLPAERVTLADFKGVLQRPSYKFFFKSMDDDFGVVKEEISDDNAKLPCFNGRVVSWLVSA

± gives the uncertainty stated by the source.

Variants of B1 are the subject of the data set. Briefly: abundance fitness (aPCA) (normalised: wild type 0, dead -1); higher = more abundant; growth selection in yeast, the domain comes from the species named. To be noted: Homo sapiens.
For GETKIIYHLDGQETPYLVKLPLPAERVTLADFKGVLQRPSYKFFFKSMDDDFGVVKEERSDDNAKLPCFNGRVVSWLVSA, the abundance fitness was -0.746 ± 0.065.

For GETKIIYHLDGQETPYLVKLPLPAERVTLADFKGVLQRPSYKFFFKSMDDDFGVVKEECSDDNAKLPCFNGRVVSWLVSA, the abundance fitness was -0.593 ± 0.13.

As for GETKIIYHLDGQETPYLVKLPLPAERVTLADFKGVLQRPSYKFFFKSMDDDFGVVKEEESDDNAKLPCFNGRVVSWLVSA, the abundance fitness was -0.677 ± 0.12.

As for GETKIIYHLDGQETPYLVKLPLPAERVTLADFKGVLQRPSYKFFFKSMDDDFGVVKEEPSDDNAKLPCFNGRVVSWLVSA, the abundance fitness was -0.777 ± 0.11.

For GETKIIYHLDGQETPYLVKLPLPAERVTLADFKGVLQRPSYKFFFKSMDDDFGVVKEEASDDNAKLPCFNGRVVSWLVSA, the abundance fitness is -0.419 ± 0.067.

With GETKIIYHLDGQETPYLVKLPLPAERVTLADFKGVLQRPSYKFFFKSMDDDFGVVKEETSDDNAKLPCFNGRVVSWLVSA, the abundance fitness was -0.811 ± 0.12.

For the variant GETKIIYHLDGQETPYLVKLPLPAERVTLADFKGVLQRPSYKFFFKSMDDDFGVVKEEGSDDNAKLPCFNGRVVSWLVSA, the abundance fitness is -0.696 ± 0.069.

Take GETKIIYHLDGQETPYLVKLPLPAERVTLADFKGVLQRPSYKFFFKSMDDDFGVVKEENSDDNAKLPCFNGRVVSWLVSA: the abundance fitness is -0.736 ± 0.28.

As for GETKIIYHLDGQETPYLVKLPLPAERVTLADFKGVLQRPSYKFFFKSMDDDFGVVKEEHSDDNAKLPCFNGRVVSWLVSA, the abundance fitness is -0.628 ± 0.16.

Turning to GETKIIYHLDGQETPYLVKLPLPAERVTLADFKGVLQRPSYKFFFKSMDDDFGVVKEESSDDNAKLPCFNGRVVSWLVSA, the abundance fitness is -0.704 ± 0.087.

As to GETKIIYHLDGQETPYLVKLPLPAERVTLADFKGVLQRPSYKFFFKSMDDDFGVVKEEMSDDNAKLPCFNGRVVSWLVSA, the abundance fitness is -0.474 ± 0.097.

For GETKIIYHLDGQETPYLVKLPLPAERVTLADFKGVLQRPSYKFFFKSMDDDFGVVKEEVSDDNAKLPCFNGRVVSWLVSA, the abundance fitness was -0.395 ± 0.064.

For GETKIIYHLDGQETPYLVKLPLPAERVTLADFKGVLQRPSYKFFFKSMDDDFGVVKEEYSDDNAKLPCFNGRVVSWLVSA, the abundance fitness was -0.655 ± 0.19.

On to GETKIIYHLDGQETPYLVKLPLPAERVTLADFKGVLQRPSYKFFFKSMDDDFGVVKEEFSDDNAKLPCFNGRVVSWLVSA, for which the abundance fitness is -0.592 ± 0.27.

Turning to GETKIIYHLDGQETPYLVKLPLPAERVTLADFKGVLQRPSYKFFFKSMDDDFGVVKEEWSDDNAKLPCFNGRVVSWLVSA, the abundance fitness is -0.724 ± 0.094.

For GETKIIYHLDGQETPYLVKLPLPAERVTLADFKGVLQRPSYKFFFKSMDDDFGVVKEEDSDDNAKLPCFNGRVVSWLVSA, the abundance fitness was -1.21 ± 0.32.

For the variant GETKIIYHLDGQETPYLVKLPLPAERVTLADFKGVLQRPSYKFFFKSMDDDFGVVKEELSDDNAKLPCFNGRVVSWLVSA, the abundance fitness was -0.64 ± 0.071.

Regarding GETKIIYHLDGQETPYLVKLPLPAERVTLADFKGVLQRPSYKFFFKSMDDDFGVVKEEQSDDNAKLPCFNGRVVSWLVSA, the abundance fitness is -1.11 ± 0.17.

On to GETKIIYHLDGQETPYLVKLPLPAERVTLADFKGVLQRPSYKFFFKSMDDDFGVVKEEKSDDNAKLPCFNGRVVSWLVSA, for which the abundance fitness is -0.675 ± 0.13.

On to GETKIIYHLDGQETPYLVKLPLPAERVTLADFKGVLQRPSYKFFFKSMDDDFGVVKEKISDDNAKLPCFNGRVVSWLVSA, for which the abundance fitness was -0.652 ± 0.15.

GETKIIYHLDGQETPYLVKLPLPAERVTLADFKGVLQRPSYKFFFKSMDDDFGVVKETISDDNAKLPCFNGRVVSWLVSA: the abundance fitness was -0.456 ± 0.098.

As to GETKIIYHLDGQETPYLVKLPLPAERVTLADFKGVLQRPSYKFFFKSMDDDFGVVKEYISDDNAKLPCFNGRVVSWLVSA, the abundance fitness was -0.801 ± 0.19.

For the variant GETKIIYHLDGQETPYLVKLPLPAERVTLADFKGVLQRPSYKFFFKSMDDDFGVVKEPISDDNAKLPCFNGRVVSWLVSA, the abundance fitness was -0.95 ± 0.16.

For GETKIIYHLDGQETPYLVKLPLPAERVTLADFKGVLQRPSYKFFFKSMDDDFGVVKEMISDDNAKLPCFNGRVVSWLVSA, the abundance fitness was -0.476 ± 0.092.

As to GETKIIYHLDGQETPYLVKLPLPAERVTLADFKGVLQRPSYKFFFKSMDDDFGVVKEHISDDNAKLPCFNGRVVSWLVSA, the abundance fitness is -0.227 ± 0.14.

For the variant GETKIIYHLDGQETPYLVKLPLPAERVTLADFKGVLQRPSYKFFFKSMDDDFGVVKEQISDDNAKLPCFNGRVVSWLVSA, the abundance fitness is -0.513 ± 0.12.

Turning to GETKIIYHLDGQETPYLVKLPLPAERVTLADFKGVLQRPSYKFFFKSMDDDFGVVKENISDDNAKLPCFNGRVVSWLVSA, the abundance fitness was -0.536 ± 0.17.

As for GETKIIYHLDGQETPYLVKLPLPAERVTLADFKGVLQRPSYKFFFKSMDDDFGVVKEAISDDNAKLPCFNGRVVSWLVSA, the abundance fitness was -0.647 ± 0.097.

In the case of GETKIIYHLDGQETPYLVKLPLPAERVTLADFKGVLQRPSYKFFFKSMDDDFGVVKESISDDNAKLPCFNGRVVSWLVSA, the abundance fitness is -0.62 ± 0.088.

GETKIIYHLDGQETPYLVKLPLPAERVTLADFKGVLQRPSYKFFFKSMDDDFGVVKEDISDDNAKLPCFNGRVVSWLVSA: the abundance fitness was -0.942 ± 0.19.

Regarding GETKIIYHLDGQETPYLVKLPLPAERVTLADFKGVLQRPSYKFFFKSMDDDFGVVKERISDDNAKLPCFNGRVVSWLVSA, the abundance fitness was -0.676 ± 0.069.

As to GETKIIYHLDGQETPYLVKLPLPAERVTLADFKGVLQRPSYKFFFKSMDDDFGVVKEVISDDNAKLPCFNGRVVSWLVSA, the abundance fitness was -0.561 ± 0.082.

On to GETKIIYHLDGQETPYLVKLPLPAERVTLADFKGVLQRPSYKFFFKSMDDDFGVVKEGISDDNAKLPCFNGRVVSWLVSA, for which the abundance fitness was -0.733 ± 0.073.

GETKIIYHLDGQETPYLVKLPLPAERVTLADFKGVLQRPSYKFFFKSMDDDFGVVKELISDDNAKLPCFNGRVVSWLVSA: the abundance fitness is -0.492 ± 0.069.
